Source: a protein production outcome set (Wang et al. 2014)

Test: label from the status in PepcDB records

Sequence	protein production
SLERSVNGKIQKADIFSVPVSFNASEVKHVDTPQEALAASLNKFGEVNLEYMENLSEIDIQELLKQLDTRIFYNPMMKNYEIKDRFIAGNVVAKAEWIENYLKDYPDDDASRKSLEALRKAIPEPISFELLDFNLGERWIPMSVYEEFAGYLFETKAHIHYTESIDEFSVNFESTNANITDRYYVKGEKRGYYGNDLLKHALHNTVPDITKTVQDEEGNDIKVRDAEAIQLADAKINEIRSAFTGWLNEQLPEFKQNLADMYNRKFNCYVRPDYDGSLQSFPFLDLKGLGIPNLYDSQ	failed
NIVEWLGDRSLAVLAAIANKFRGSEQETLEPQLDEFVEDKVSTKHVEDDQQDDETLPHLTAYEVEEPKEKAAVHEYPIYMPQAKSETSAVKPTPEPQPQRVAAVNATPTYVEPEPQLKAVSTDNVDPMVERTKQLNVTIEELEAAAQQADDWASEEQTSQSYADTNAVYQEQVQAKHEEVVEHDTPQLESSYAEYAQFAAQQEQQLHVEPTPHEEPVIDTRALDDITDHAEPSEHIEPTISDFDVVDEEETYVAPQPQSRSPEPQPMVQPQSVSQIQPEQAPEPSVAFEPAPQEVEVEEVQDGDQDVAAFQSMVSSAQAKVAATQNPFLMKQEQNLPVPEEPLPTLELLYHPEKRENFIDREALEQVARLVESKLADYKIKADVVGIYPGPVITRFELDLAPGVKVSRISGLSMDLARALSAMAVRVVEVIPGKPYVGLELPNMSRQTVYLSDVISSPQFEQAKSPTTVVLGQDIAGEAVIADIAKMPHVLVAGTTGSGKSVGVNVMILSMLYKASPEDLRFIMIDPKMLELSIYEGIPHLLAEVVTDMKDASNALRWCVGEMERRYKLMSALGVRNVKGFNEKLKMAAEAGHPIHDPFWQEGDSMDTEPPLLEKLPYIVVVVDEFADLMMVVGKKVEELIARLAQKARAAGIHLILATQRPSVDVITGLIKANIPTRVAFTVSTKTDSRTILDQGGAESLLGMGDMLYLPPGSSHTIRVHGAFASDDDVHAVVNNWKARGKPNYIDEIISGDQGPESLLPGEQMESDEEMDPLFDQVVEHVVQSRRGSVSGVQRRFKIGYNRAARIVEQLEAQGIVSAPGHNGNREVLAPAPPKD	failed
MSLKHVVVIGAVALGPKAACRFKRLDPEAHVTMIDQASRISYGGCGIPYYVSGEVSNIESLQATPYNVVRDPEFFRINKDVEALVETRAHAIDRAAHTVEIENLRTGERRTLKYDKLVLALGSKANRPPVEGMDLAGVTPVTNLDEAEFVQHAISAGEVSKAVIVGGGFIGLEMAVSLADMWGIDTTVVELADQIMPGFTSKSLSQMLRHDLEKNDVVVHTGEKVVRLEGENGKVARVITDKRTLDADLVILAAGVSPNTQLARDAGLELDPRGAIIVDTRMRTSDPDIFAGGDCVTIPNLVTGKPGFFPLGSMANRQGRVIGTNLADGDATFPGAVGSWAVKLFEGSASGAGLTVEGALREGYDAVNVHVEQFDRAHFYPEKTIMTLQLVVDRPTRRVLGIQGFSTLGDALTARINAVATMLASKPTVEDISNAEVVYSPPFASAMDIVNVAGNVADNVLAGREGHHHHHH	not failed
LICLLSSLLSVQAAPGPHPHWSVGFHEMSFLDPLDRQPMRAIAFYPSTGIEHGSQLEGYQIAASRDAKIAIGRFPMLMLSHGNTGTPLALHDLATSLARKGFVVVAVIHPGDNSKDHSRLGTLSNLYGRPIQISEAITATLGDPMLSPFVNADQVGVIGYSAGGETALILSGATPDLDRLRRYCQERPNDRDACNTQGELIVDRDDLQPVADPRVHALMLLAPLSLKFGRQTLAGVHVPVLLYSGDGDQLVALDKNAAALARKLPVAPDFKLLAGAGHFVFMAPCSAQQMAAMPALCTDADGVDREDIHRNLILEAGNFFA	failed
MDYMERPKLGLIVREPYASLIVDGRKVWEIRRRKTRHRGPLGIVSGGRLIGQADLVGVEGPFSVEELLAHQEKHLAEEAFLRAYAKDEPLYAWVLENAFRYEKPLHVPRRPGRVMFVDLSEVRW	not failed
MSTKTMKEKAVELLQKCEVVTLASVNKEGYPRPVPMSKIAAEGISTIWMSTGADSLKTIDFLSNPKAGLCFQEKGDSVALMGEVEVVTDEKLKQELWQDWFIEHFPGGPTDPGYVLLKFTANHATYWIEGTFIHKKLD	not failed
MAIAFHTFLLQLLLFFFASFAEANDSRKTYLVQMKVGGHRYGSSSGHQELLGEVLDDDSYKESFTGFSASLTPRERQKLMSKTTTVSSRRREVLEVSRSRNLKLQTTRSWDFMNLTLKAERNPENESDLVVAVIDSGIWPYSELFGSDSPPPPGWENKCENITCNNKIVGARSYYPKKEKYKWVEEKSVIDVTGHGTHVASIVAGRKVEKAGYFGLAEGTMRGGVPNAKIAVYKTCWRVIRKNGREDSVCREDNILKAIDDAIADKVDIISYSQGFQFTPLQKDKVSWAFLRALKNGILTSAAAGNYANNGKFYYTVANGAPWVMTVAASLKDRIFETKLELEGEDKPIIVYDTINTFETQDSFYPLLNEKAPPESTRKRELIAERNGYSILSNYDEKDKGKDVFFEFAQINLLDEAIKEREKGAIVLGGKSYDFNESIKLQFPIASIFLDEQKKGKLWDYYKKDQSKERLAKIHKTEEIPREEGWVPTVAHLSSRGPNCDSFLANILKPDIAAPGLDIIAGWPENVKLSSDRPANDYRHLRFNIMSGTSMACPHATGLALYLKSFKRWSPSAIKSALMTTSSEMTDDDNEFAYGSGHLNATKVRDPGLVYETHYQDYIDYLCKLGYNTEKLRSHVGSDKIDCSKTEIDHDADLNYPTMTARVPLPLDTPFKKVFHRTVTNVNDGEFTYLREINYRGDKDFDEIIVDPPQLKFSELGETKTFTVTVTGISKRNWNKNRAFMTRNTWLTWTEKDGSRQVRSPIVIYSIKGPKACM	failed
MRLMDILEILYYKKGKEFGILEKKMKEIFNETGVSLEPVNSELIGRIFLKISVLEEGEEVPSFAIKALTPKENAVDLPLGDWTDLKNVFVEEIDYLDSYGDMKILSEKNWYKIYVPYSSVKKKNRNELVEEFMKYFFESKGWNPGEYTFSVQEIDNLF	not failed
MLVRLKETDQRTMISRIKALAPPVQKAGAALLIDGHAELVARGGADGAHLPGIAALKEALPSLKPDRIAGVGGLTTRHHSMDAGEIGADYLLFGEPDAKGQRPSSEAIAERLDWWAELFEPPCVGFATSLEEAYDFAASGADFVLVGEFVWADPRGAKAALIEADATIKKAHAAALASQNPAGEHG	failed
MIKDRFLQLIQLLISLFLIMGALGIGITIQKFTGVSVPGSVIGMLVLFFSMTLGLVKVDWVKPGATLFIRYMILLFVPISVGLMQHFDMLLANALPIIASAVGGSLIVLVSLAWLLDYLLKEKH	failed
RSIRLPETIDLGALYLSMKDTEKGIKELNLEKDKKIFNHCFTGNCVIDWLVSNQSVRNRQEGLMIASSLLNEGYLQPAGDMSKSAVDGTAENPFLDNPDAFYYFPDSGFFCEEN	not failed
MSLKFDFSNLFEPNISGGLTDEDVKSVEEKVTSAVRNFVENTPDFAKLDRSWIDSVKSLEDWIINFDTVVVLGIGGSGLGNLALHYSLRPLNWNEMTREERNGYARVFVVDNVDPDLMSSVLDRIDPKTTLFNVISKSGSTAEVMATYSIARGILEAYGLDPREHMLITTDPEKGFLRKLVKEEGFRSLEVPPGVGGRFSVLTPVGLLSAMAEGIDIDELHEGAKDAFEKSMKENILENPAAMIALTHYLYLNKGKSISVMMAYSNRMIYLVDWYRQLWAESLGKRYNLKGEEVFTGQTPVKALGATDQHSQIQLYNEGPNDKVITFLRVENFDREIVIPETGRAELSYLARKKLSELLLAEQTGTEEALRENNRPNMRVTFDGLTPYNVGQFFAYYEAATAFMGYLLEINPFDQPGVELGKKITFALMGREGYTYEIKERSKKVIIE	not failed
MSLNRVFIVDDDTLTCNLLKTIVEPIFGNVEAFQHPRAFLTLSLNKQDIIILDLMMPDMDGIEVIRHLAEHKSPASLILISGYDSGVLHSAETLALSCGLNVINTFTKPINTEVLTCFLTSLSNRQAEGHHHHHH	not failed
MSLIMITAEMVPPDLLIKRLAIYLKENVKTVDPPEWALLAKTASFKERVPDNAEDWWYIRAASLLRKLYVNSIIGIEKTRTIYGGRKRRGTRPEKFVKAPGHVNRLIFQQLEKAGLVQKIKNKGRSLSPKGRSLLDKLALEIFKELAENNTSLKVYLELEHHHHHH	not failed
LDTLRRYHRQTLQDLPMGVCSLAKDQEVLMWNRAIEELTGVGAQKVVGSRLSALPEPWKGLLERFIDAPDEHLHKQRLVYDGHTRWLNLHKAAIEEPLAPGNSGLVLLVEDLTETQLLEDKLVHSERLASIGRLAAGVAHEIGNPITGI	not failed
MQIIEGKLQLQGNERVAILTSRFNHIITDRLQEGAMDCFKRHGGDEDLLDIVLVPGAYELPFILDKLLESEKYDGVCVLGAIIRGGTPHFDYVSAEATKGIAHAMLKYSMPVSFGVLTTDNIEQAIERAGSKAGNKGFEAMSTLIELLSLCQTLKG	failed
MDDSMTSIKVHCLVSCFCEIIKRRSDIDFRPFYFGLWDGDFDITEGGIISYHSENINHDHYLLWYEKLYGMKVNEWYDHAKDKDSNVETFLQLVENKPENRYVIVMVDMSLLPERENKFHQKPFPHYLMISETEKEEEWFMLDPDFRWEGNMEREKVLYSVQDNPFGGGYFIDVEEIQEPTAEMVASYFIETFKRNDNELTMELKNLIIKMANEEEGYLLSGLVAAVKQIPVLAIRKYSYEHAFAYFRETLQYSEQEFDYWCDRVEDIVQGFTNVQYRAIKMAMTNNKGMLLSIVEKLDEMNAIELQIKTELERQFLSWKEMKSNESVLVF	failed
MERIETIPTDKEHLSQDEVIRLASTPCSAPALKRAFLFSCLTALRKSDIKKLTWEEIQPYGSDGVMYVTTRMQKTKDIVHNPISEEALELIGYSPDKRGKVFPDFKDSMTQAPLKNWLKDAGITKHISYHCSRHSFACLQLDAGTSIAVVQRYLGHKNVATTEVYAKISDAQKRASVGLEHHHHHH	not failed
MPPLGRPCHLAAMDSTDGPLDLIAERAEAAWSRGDRHRAMTLARLGLGQDDGHPRLLAVLGAFEQAEGRSAAAAGLFRRAMARCGDDPLMLHNLGVALRGAGLIDAAAAAWEGVLRGCPQRFATLFNLARLRDDQGRGEEALALYRRACLADPAASDAAYNLGNLLARRGALAQAAEVLGKAASVTPHDARIQTNLGIVLRRLGDAAGALACQRRAVALDPDLADAQWNLANLLLALDDYDEGFARYEWRKRRAPWRLVDPPLAEWRGEDLAGRRLLVGLEQGAGDMIQAARFLPVLAGRGARVIVEAPDALAGLLATVDGVESVVAPGAWAAARATCHIRAFSLPYRLGLRFADLAATAGPYLRVPPRTPTPPALPPGGQGPCVGLCWSGNPDFTENAVRAAPLAAFAPLTAVEGLTFFSLQKGPAVAELAASGLPVIDLDPWLVDYAATAAAMARLDMVVTTDTSVAHLAGALGRPCLLLLAAHCDWRWGIGRETSPWYPSLRLLRQERLGDWRAPVARAAALLAGLRRGTDTRGPEST	failed
MICVYTEDRWADILAAVASVRAQSRPARETLLVVDHHQTLLERLSREYKEVPEVRVLANAGPRGLSAGRNTGIAASHGEIIAFLDDDAVAERDWLRHFAEGYEDPRVMAVGGRTMPIWASGRRPAWFPEEFDWVVGCTYKGLPPGRVRVRNVLGGNASFRRTAFDAAGGFATGIGRDGDKRPLGCEETELCIRLTRARPDAILLIDDRAVIHHRVPEPREHFAYFRTRTYAEGLSKALVARSVGAGKGLESERRYTTRVLPAGVARGLRDAALARPGGAGRAGAIVAGVLTAAGGYVLGSVRARRGGATFSVVEPPDSEGEAA	failed
MIFYFSGTGNSAWVARQLAEGQNEELLSIAMEIDRNKAYKLKEGEKVGFVFPVYAWGPPKIVLRFIHQLKLDKPGYLFFVCTCGDDTGRTAQIFSSAVTRKGWQCVAGYSVTMPNTYVSLPGFDVDDKDIETQKVQNAVARVRFINEEITSRAQMKQYNCHEGALPFTKSYLLRPLFNAFLMSPKPFHTTEACIGCKKCEKVCPVGNITVTDRPVWGGNCTQCLACYHVCPVHAVEYGKMTGKKGQYKGRLLKDL	failed
